Data from publication PMC9966682, “Lactose and Galactose Promote the Crystallization of Human Galectin-10” (Molecules, 2023).

Target: the molecule itself
Experiment: SEC; size-exclusion HPLC, Spherogel-TSK-2000SW; Gal-10 diluted to 100 μM, incubated 2 h at 4 °C; PBS–azide buffer (6.7 mM KH2PO4, 150 mM NaCl, 14 mM β-mercaptoethanol, 0.02% NaN3), pH 7.4; monomer–dimer equilibrium

B1: Recombinant human Charcot–Leyden crystal (CLC) protein (natural protein, UniProt Q05315 1-142, looked up)
chain: MSLLPVPYTEAASLSTGSTVTIKGRPLACFLNEPYLQVDFHTEMKEESDIVFHFQVCFGRRVVMNSREYGAWKQQVESKNMPFQDGQEFELSISVLPDKYQVMVNGQSSYTFDHRIKPEAVKMVQVWRDISLTKFNVSYLKR
notes: Galectin-10 (Charcot-Leyden crystal protein), human; the introduction gives 142 amino-acid residues; also called Galectin-10; Gal-10; source: E. coli, bought: Cloud-Clone Corp., purified with Ni-nitrilotriacetic acid resin
Question: Which “stoichiometry N” value does the source give for B1 here?
Answer: Its value is 2.
